Columns and labels:
[1] = target: T1, human Tissue Factor (hTF) (human, UniProt P13726 33-295); assay: cell-based or functional assay
[2] = target: T2, rabbit TF ECD-His (TF-His) protein (rabbit (Oryctolagus cuniculus), UniProt P24055 33-250); assay: Biacore; antibody captured by anti-human IgG on CM5 chip, titration of rabbit TF-His, 1:1 model
T2 construct: also called rabbit TF-His
Experimental: The ability of certain antibodies was tested for binding to rabbit TF. For rabbit TF Biacore-based measurements, a given anti-TF antibody was captured by an anti-human IgG antibody covalently coupled to a CM5 chip (GE Healthcare Bio-Sciences). Association between the anti-TF antibodies and a five-point three-fold titration of rabbit TF-His starting at 100 nM was measured for 180 to 240 sec. Subsequently, dissociation between the anti-TF antibody and TF-His was measured for 1800 sec. Kinetic data was analyzed and fitted globally using a 1:1 binding model.

[3] = target: T3, pig TF ECD-His (TF-His) protein (pig (Sus scrofa)); assay: Biacore; antibody captured by anti-human IgG on CM5 chip, titration of pig TF-His, 1:1 model
T3 construct: also called pig TF-His; pTF
T3 chain: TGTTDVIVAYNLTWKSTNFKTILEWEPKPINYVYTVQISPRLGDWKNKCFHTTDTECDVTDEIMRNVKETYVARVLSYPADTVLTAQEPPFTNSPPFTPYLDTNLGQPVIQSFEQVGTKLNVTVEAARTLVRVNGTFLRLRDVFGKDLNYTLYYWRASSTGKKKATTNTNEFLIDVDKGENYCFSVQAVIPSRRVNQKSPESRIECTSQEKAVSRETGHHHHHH
Experimental: The ability of certain antibodies was tested for binding to pig TF. For pig TF Biacore-based measurements, a given anti-TF antibody was captured by an anti-human IgG antibody covalently coupled to a CM5 chip (GE Healthcare Bio-Sciences). Association between the anti-TF antibodies and a five-point three-fold titration of pig TF-His starting at 100 nM was measured for 180 to 240 sec. Subsequently, dissociation between the anti-TF antibody and TF-His was measured for 1800 sec. Kinetic data was analyzed and fitted globally using a 1:1 binding model.

[4] = target: T1, human Tissue Factor (hTF); assay: cell-based or functional assay; remark: listed apart in the source
[5] = target: T4, human Tissue Factor on human TF-positive cells (human, UniProt P13726 33-295); assay: flow cytometry, titration of the MC-vc-PAB-MMAE ADC on HCT-116 cells (human TF), 4-parameter fit of MFI
T4 construct: also called hTF; CD142

T2 sequence (P24055 other isoform, or with tags, fused parts or gaps): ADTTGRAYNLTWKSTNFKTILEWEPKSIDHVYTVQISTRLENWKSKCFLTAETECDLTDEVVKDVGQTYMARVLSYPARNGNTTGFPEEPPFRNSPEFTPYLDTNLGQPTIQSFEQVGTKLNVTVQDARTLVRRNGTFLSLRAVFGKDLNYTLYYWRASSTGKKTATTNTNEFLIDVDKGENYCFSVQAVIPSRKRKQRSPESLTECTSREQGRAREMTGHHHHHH

B1: anti-TF antibody 43D7 (antibody, human IgG1, V domains shown)
VH: QVQLQQWGAGLLKPSETLSLTCAVYGGSLSGYYWSWIRQPPGKGLEWIGEIGASGSTRYNPSLKSRVTISVDTSKNQFSLKLSSVTAADTAVYYCARDTPYYYEGGYYYYMDVWGKGTTVTVSS
VL: EIVLTQSPGTLSLSPGERATLSCRASDSVDSSYLAWYQQKPGQAPRLLIYGAFSRANGIPDRFSGSGSGTDFTLTISRLEPEDFAVYYCQQAGVVPYTFGGGTKVEIK
notes: Human IgG1
- IC50, cell viability of A431 cells, Secondary ADC (antibody with anti-human Fc Fab:MMAF), Continuous (FIG. 18B) [1]: 0.1 nM
- Kd [2]: 6.8 nM
- Kd [3]: 8.8 nM

B2: anti-TF antibody 43D8 (antibody, human IgG1, V domains shown)
VH: QVQLQQWGAGLLKPSETLSLTCAVYGGSLSGYYWSWIRQPPGKGLEWIGEIGASGSTRYNPSLKSRVTISVDTSKNQFSLKLSSVTAADTAVYYCARDTPYYYEGGYYYYMDVWGKGTTVTVSS
VL: EIVLTQSPGTLSLSPGERATLSCRASQSVSSSFLAWYQQKPGQAPRLLIYGAYSRATGIPDRFSGSGSGTDFTLTISRLEPEDFAVYYCQQAGVVPYTFGGGTKVEIK
notes: Human IgG1
- Kd [2]: 7.7 nM
- Kd [3]: 19.2 nM

B3: tisotumab vedotin (TF-011) ADC (antibody, V domains shown)
VH: EVQLLESGGGLVQPGGSLRLSCAASGFTFSNYAMSWVRQAPGKGLEWVSSISGSGDYTYYTDSVKGRFTISRDNSKNTLYLQMNSLRAEDTAVYYCARSPWGYYLDSWGQGTLVTVSS
VL: DIQMTQSPPSLSASAGDRVTITCRASQGISSRLAWYQQKPEKAPKSLIYAASSLQSGVPSRFSGSGSGTDFTLTISSLQPEDFATYYCQQYNSYPYTFGQGTKLEIK
modifications: MC-vc-PAB-MMAE on cysteines of the partially reduced antibody (chain and positions not stated), DAR 3-4
- IC50, cell viability of A431 cells, Primary ADC, Continuous (FIG. 20A) [1]: 0.05 nM
- IC50, cell viability of A431 cells, Primary ADC, 4 hr, followed by washout (FIG. 20B) [4]: 0.17 nM

B4: anti-TF antibody 25A (antibody, human IgG1, V domains shown)
VH: QVQLVQSGAEVKKPGASVKVSCKASGYTFDVYGISWVRQAPGQGLEWMGWIAPYNGNTNYAQKLQGRVTMTTDTSTSTAYMELRSLRSDDTAVYYCARDAGTYSPFGYGMDVWGQGTTVTVSS
VL: DIQMTQSPSTLSASVGDRVTITCRASQSISSWLAWYQQKPGKAPKLLIYKASSLESGVPSRFSGSGSGTEFTLTISSLQPDDFATYYCQQFQSLPPFTFGGGTKVEIK
notes: Human IgG1
- IC50, cell viability of A431 cells, Secondary ADC (antibody with anti-human Fc Fab:MMAF), Continuous (FIG. 18B) [1]: 0.11 nM
- Kd [2]: 50.5 nM
- Kd [3]: 18.7 nM

B5: 25A-vc-MMAE (antibody, IgG1, V domains shown)
VH: QVQLVQSGAEVKKPGASVKVSCKASGYTFDVYGISWVRQAPGQGLEWMGWIAPYNGNTNYAQKLQGRVTMTTDTSTSTAYMELRSLRSDDTAVYYCARDAGTYSPFGYGMDVWGQGTTVTVSS
VL: DIQMTQSPSTLSASVGDRVTITCRASQSISSWLAWYQQKPGKAPKLLIYKASSLESGVPSRFSGSGSGTEFTLTISSLQPDDFATYYCQQFQSLPPFTFGGGTKVEIK
modifications: MC-vc-PAB-MMAE on cysteines of the partially reduced antibody (chain and positions not stated), DAR 3-4
notes: Antibody-drug conjugate (primary ADC) of the IgG1 antibody; also called 25A ADC; 25A conjugated to MC-vc-PAB-MMAE
- EC50 [5]: 0.34 nM
- IC50, cell viability of A431 cells, Primary ADC, Continuous (FIG. 20A) [1]: 0.09 nM
- IC50, cell viability of HPAF-II cells, Primary ADC, Continuous (FIG. 22E) [1]: 0.06 nM
- IC50, cell viability of MDA-MB-231 cells, Primary ADC, Continuous (FIG. 22D) [1]: 0.14 nM
- IC50, cell viability of A431 cells, Primary ADC, 4 hr, followed by washout (FIG. 20B) [4]: 0.35 nM
- IC50, cell viability of A431 cells, Primary ADC, 4 hr, followed by washout, absence of FVIIa (FIG. 21A) [4]: 0.18 nM

B6: anti-TF antibody 25G1 conjugated to MC-vc-PAB-MMAE (antibody, IgG1, V domains shown)
VH: QVQLVQSGAEVKKPGASVKVSCKASGYTFRSYGISWVRQAPGQGLEWMGWVAPYSGNTNYAQKLQGRVTMTTDTSTSTAYMELRSLRSDDTAVYYCARDAGTYSPYGYGMDVWGQGTTVTVSS
VL: DIQMTQSPSTLSASVGDRVTITCRASHSIDSWLAWYQQKPGKAPKLLIYKASYLESGVPSRFSGSGSGTEFTLTISSLQPDDFATYYCQLFQSLPPFTFGGGTKVEIK
modifications: MC-vc-PAB-MMAE on cysteines of the partially reduced antibody (chain and positions not stated), DAR 3-4
notes: Antibody-drug conjugate (primary ADC) of the IgG1 antibody; also called 25G1 ADC
- EC50 [5]: 0.17 nM
- IC50, cell viability of A431 cells, Primary ADC, Continuous (FIG. 20A) [1]: 0.06 nM
- IC50, cell viability of HPAF-II cells, Primary ADC, Continuous (FIG. 22E) [1]: 0.04 nM
- IC50, cell viability of MDA-MB-231 cells, Primary ADC, Continuous (FIG. 22D) [1]: 0.09 nM
- IC50, cell viability of A431 cells, Primary ADC, 4 hr, followed by washout (FIG. 20B) [4]: 0.19 nM
- IC50, cell viability of A431 cells, Primary ADC, 4 hr, followed by washout, absence of FVIIa (FIG. 21A) [4]: 0.1 nM

B7: anti-TF antibody 25G (antibody, human IgG1, V domains shown)
VH: QVQLVQSGAEVKKPGASVKVSCKASGYTFRSYGISWVRQAPGQGLEWMGWVAPYNGNTNYAQKLQGRVTMTTDTSTSTAYMELRSLRSDDTAVYYCARDAGTYSPYGYGMDVWGQGTTVTVSS
VL: DIQMTQSPSTLSASVGDRVTITCRASQSISSWLAWYQQKPGKAPKLLIYKASSLESGVPSRFSGSGSGTEFTLTISSLQPDDFATYYCQQFQSLPPFTFGGGTKVEIK
notes: Human IgG1
- Kd [2]: 75.5 nM
- Kd [3]: 26 nM

B8: anti-TF antibody 25A3 (antibody, human IgG1, V domains shown)
VH: QVQLVQSGAEVKKPGASVKVSCKASGYTFDVYGISWVRQAPGQGLEWMGWIAPYSGNTNYAQKLQGRVTMTTDTSTSTAYMELRSLRSDDTAVYYCARDAGTYSPFGYGMDVWGQGTTVTVSS
VL: DIQMTQSPSTLSASVGDRVTITCQASQSINNWLAWYQQKPGKAPKLLIYKAYNLESGVPSRFSGSGSGTEFTLTISSLQPDDFATYYCQLFQSLPPFTFGGGTKVEIK
notes: Human IgG1
- IC50, cell viability of A431 cells, Secondary ADC (antibody with anti-human Fc Fab:MMAF), Continuous (FIG. 18B) [1]: 0.09 nM
- Kd [3]: 5.5 nM

B9: anti-TF antibody 25G1 (antibody, human IgG1, V domains shown)
VH: QVQLVQSGAEVKKPGASVKVSCKASGYTFRSYGISWVRQAPGQGLEWMGWVAPYSGNTNYAQKLQGRVTMTTDTSTSTAYMELRSLRSDDTAVYYCARDAGTYSPYGYGMDVWGQGTTVTVSS
VL: DIQMTQSPSTLSASVGDRVTITCRASHSIDSWLAWYQQKPGKAPKLLIYKASYLESGVPSRFSGSGSGTEFTLTISSLQPDDFATYYCQLFQSLPPFTFGGGTKVEIK
notes: Human IgG1
- IC50, cell viability of A431 cells, Secondary ADC (antibody with anti-human Fc Fab:MMAF), Continuous (FIG. 18B) [1]: 0.08 nM
- Kd [2]: 3.6 nM
- Kd [3]: 2.6 nM

B10: anti-TF antibody 25A5 (antibody, human IgG1, V domains shown)
VH: QVQLVQSGAEVKKPGASVKVSCKASGYTFDVYGISWVRQAPGQGLEWMGWIAPYSGNTNYAQKLQGRVTMTTDTSTSTAYMELRSLRSDDTAVYYCARDAGTYSPFGYGMDVWGQGTTVTVSS
VL: DIQMTQSPSTLSASVGDRVTITCRASESISNWLAWYQQKPGKAPKLLIYKAYSLEYGVPSRFSGSGSGTEFTLTISSLQPDDFATYYCQQFQKLPPFTFGGGTKVEIK
notes: Human IgG1
- Kd [2]: 5.4 nM
- Kd [3]: 5.2 nM

B11: anti-TF antibody 25A5-T (antibody, human IgG1, V domains shown)
VH: QVQLVQSGAEVKKPGASVKVSCKASGYTFDAYGISWVRQAPGQGLEWMGWIAPYSGNTNYAQKLQGRVTMTTDTSTSTAYMELRSLRSDDTAVYYCARDAGTYSPFGYGMDVWGQGTTVTVSS
VL: DIQMTQSPSTLSASVGDRVTITCRASESISNWLAWYQQKPGKAPKLLIYKAYSLEYGVPSRFSGSGSGTEFTLTISSLQPDDFATYYCQQFQKLPPFTFGGGTKVEIK
notes: Human IgG1
- Kd [2]: 5.4 nM
- Kd [3]: 4.5 nM

B12: 25A3-vc-MMAE (antibody, IgG1, V domains shown)
VH: QVQLVQSGAEVKKPGASVKVSCKASGYTFDVYGISWVRQAPGQGLEWMGWIAPYSGNTNYAQKLQGRVTMTTDTSTSTAYMELRSLRSDDTAVYYCARDAGTYSPFGYGMDVWGQGTTVTVSS
VL: DIQMTQSPSTLSASVGDRVTITCQASQSINNWLAWYQQKPGKAPKLLIYKAYNLESGVPSRFSGSGSGTEFTLTISSLQPDDFATYYCQLFQSLPPFTFGGGTKVEIK
modifications: MC-vc-PAB-MMAE on cysteines of the partially reduced antibody (chain and positions not stated), DAR 3-4
notes: Antibody-drug conjugate (primary ADC) of the IgG1 antibody; also called 25A3 ADC; 25A3 MMAE ADC
- EC50 [5]: 0.17 nM
- IC50, cell viability of A431 cells, Primary ADC, Continuous (FIG. 20A) [1]: 0.07 nM
- IC50, cell viability of HPAF-II cells, Primary ADC, Continuous (FIG. 22E) [1]: 0.05 nM
- IC50, cell viability of MDA-MB-231 cells, Primary ADC, Continuous (FIG. 22D) [1]: 0.11 nM
- IC50, cell viability of A431 cells, Primary ADC, 4 hr, followed by washout (FIG. 20B) [4]: 0.19 nM
- IC50, cell viability of A431 cells, Primary ADC, 4 hr, followed by washout, absence of FVIIa (FIG. 21A) [4]: 0.12 nM

B13: anti-TF antibody 25G9 (antibody, human IgG1, V domains shown)
VH: QVQLVQSGAEVKKPGASVKVSCKASGYTFRSYGISWVRQAPGQGLEWMGWVAPYSGNTNYAQKLQGRVTMTTDTSTSTAYMELRSLRSDDTAVYYCARDAGTYSPYGYGMDVWGQGTTVTVSS
VL: DIQMTQSPSTLSASVGDRVTITCQASQSIDSWLAWYQQKPGKAPKLLIYSASYLESGVPSRFSGSGSGTEFTLTISSLQPDDFATYYCQRFQSLPPFTFGGGTKVEIK
notes: Human IgG1
- Kd [2]: 4.2 nM
- Kd [3]: 3.3 nM
